Source: article PMC10397247

Legend:
Assay in all cases: two-hybrid library CCNG1;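 further: natural log of median RNA to DNA barcode read ratio; higher means stronger binding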
[1] = molecular target: T1, 4H687-bN
T1 chain: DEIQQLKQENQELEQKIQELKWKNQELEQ

[2] = molecular target: T2, 4H4001-bN
T2 chain: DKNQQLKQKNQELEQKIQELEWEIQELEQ

[3] = molecular target: T3, 4H717-bN
T3 chain: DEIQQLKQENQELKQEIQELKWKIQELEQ

[4] = molecular target: T4, 4H953-bN
T4 chain: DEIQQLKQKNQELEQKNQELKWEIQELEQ

[5] = molecular target: T5, 4H883-bN
T5 chain: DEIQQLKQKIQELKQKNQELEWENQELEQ

[6] = molecular target: T6, 4H338-bN
T6 chain: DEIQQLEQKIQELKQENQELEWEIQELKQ

[7] = molecular target: T7, 4H3427-bN
T7 chain: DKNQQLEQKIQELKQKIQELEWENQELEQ

[8] = molecular target: T8, 4H3185-bN
T8 chain: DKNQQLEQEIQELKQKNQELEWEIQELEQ

[9] = molecular target: T9, 4H797-bN
T9 chain: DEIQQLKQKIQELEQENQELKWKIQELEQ

[10] = molecular target: T10, 4H607-bN
T10 chain: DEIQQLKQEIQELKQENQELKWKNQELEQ

[11] = molecular target: T11, 4H3112-bN
T11 chain: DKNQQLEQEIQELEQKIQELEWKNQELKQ

[12] = molecular target: T12, 4H3354-bN
T12 chain: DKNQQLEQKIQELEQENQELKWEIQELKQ

[13] = molecular target: T13, 4H2729-bN
T13 chain: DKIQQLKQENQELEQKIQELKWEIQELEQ

[14] = molecular target: T14, 4H568-bN
T14 chain: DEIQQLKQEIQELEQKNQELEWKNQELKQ

[15] = molecular target: T15, 4H3782-bN
T15 chain: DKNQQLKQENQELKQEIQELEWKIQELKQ

[16] = molecular target: T16, 4H3855-bN
T16 chain: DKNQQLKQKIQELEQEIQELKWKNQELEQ

[17] = molecular target: T17, 4H331-bN
T17 chain: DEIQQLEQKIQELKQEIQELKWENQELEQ

[18] = molecular target: T18, 4H3817-bN
T18 chain: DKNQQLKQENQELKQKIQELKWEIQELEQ

[19] = molecular target: T19, 4H908-bN
T19 chain: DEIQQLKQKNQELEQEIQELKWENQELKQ

[20] = molecular target: T20, 4H918-bN
T20 chain: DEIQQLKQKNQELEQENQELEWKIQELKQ

[21] = molecular target: T21, 4H72-bN
T21 chain: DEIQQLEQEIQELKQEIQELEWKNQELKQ

[22] = molecular target: T22, 4H967-bN
T22 chain: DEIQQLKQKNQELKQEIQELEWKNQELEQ

[23] = molecular target: T23, 4H754-bN
T23 chain: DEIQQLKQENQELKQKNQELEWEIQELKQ

[24] = molecular target: T24, 4H454-bN
T24 chain: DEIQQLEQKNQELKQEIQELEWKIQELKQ

[25] = molecular target: T25, 4H967-bH
T25 chain: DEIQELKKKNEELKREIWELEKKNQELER

[26] = molecular target: T26, 4H855-bH
T26 chain: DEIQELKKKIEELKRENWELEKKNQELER

[27] = molecular target: T27, 4H953-bH
T27 chain: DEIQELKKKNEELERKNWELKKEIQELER

[28] = molecular target: T28, 4H908-bH
T28 chain: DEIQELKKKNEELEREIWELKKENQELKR

[29] = molecular target: T29, 4H797-bH
T29 chain: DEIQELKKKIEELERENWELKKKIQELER

[30] = molecular target: T30, O16-bA
T30 chain: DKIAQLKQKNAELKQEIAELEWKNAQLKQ

[31] = molecular target: T31, 4H883-bH
T31 chain: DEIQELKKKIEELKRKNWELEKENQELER

[32] = molecular target: T32, 4H968-bH
T32 chain: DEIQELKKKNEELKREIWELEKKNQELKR

[33] = molecular target: T33, 4H918-bH
T33 chain: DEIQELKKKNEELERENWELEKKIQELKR

[34] = molecular target: T34, 4H3843-bN
T34 chain: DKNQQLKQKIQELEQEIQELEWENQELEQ

[35] = molecular target: T35, 4H3606-bN
T35 chain: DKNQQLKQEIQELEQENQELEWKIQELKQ

[36] = molecular target: T36, 4H2667-bN
T36 chain: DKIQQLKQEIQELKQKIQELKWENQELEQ

[37] = molecular target: T37, 4H2697-bN
T37 chain: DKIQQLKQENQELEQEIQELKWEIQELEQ

[38] = molecular target: T38, 4H3189-bN
T38 chain: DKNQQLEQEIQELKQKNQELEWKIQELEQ

[39] = molecular target: T39, 4H462-bN
T39 chain: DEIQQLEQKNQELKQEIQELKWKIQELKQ

[40] = molecular target: T40, 4H370-bN
T40 chain: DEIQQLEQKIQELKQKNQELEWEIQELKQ

[41] = molecular target: T41, 4H575-bA
T41 chain: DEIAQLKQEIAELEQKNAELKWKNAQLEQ

## DKIQQLKQENQELEQKIQELKWEIQELEQ [4H2729-bN]
[1]
  interaction score: -0.901
[2]
  interaction score: -1.4
[3]
  interaction score: -1.59
[4]
  interaction score: -0.965
[5]
  interaction score: -2.01
[6]
  interaction score: -1.12
[7]
  interaction score: -1.07
[8]
  interaction score: -0.905
[9]
  interaction score: -1.01
[10]
  interaction score: -1.28
[11]
  interaction score: -0.365
[12]
  interaction score: -0.621
[13]
  interaction score: -1.82
[14]
  interaction score: -1.47
[15]
  interaction score: -0.911
[16]
  interaction score: -0.181
[17]
  interaction score: -1.39
[18]
  interaction score: -0.912
[19]
  interaction score: -1.64
[20]
  interaction score: -0.584
[21]
  interaction score: -1.09
[22]
  interaction score: -0.995
[23]
  interaction score: -0.565
[24]
  interaction score: 1.43

## DEIQELKKKIEELERENWELKKKIQELER [4H797-bH]
[25]
  interaction score: 0.229
[26]
  interaction score: -1.17
[27]
  interaction score: -0.0525
[28]
  interaction score: -0.915
[29]
  interaction score: -0.311
[30]
  interaction score: -0.174
[31]
  interaction score: 0.639
[32]
  interaction score: -0.0614
[33]
  interaction score: 0.24

## DKIQQLKQEIQELKQKIQELKWENQELEQ [4H2667-bN]
[1]
  interaction score: -1.55
[2]
  interaction score: 0.942
[34]
  interaction score: 1.5
[3]
  interaction score: -0.215
[4]
  interaction score: -0.794
[5]
  interaction score: -0.0532
[35]
  interaction score: 0.163
[6]
  interaction score: 0.105
[7]
  interaction score: 1.56
[8]
  interaction score: -0.735
[9]
  interaction score: -1.02
[10]
  interaction score: -1.69
[11]
  interaction score: 1.72
[12]
  interaction score: -1.12
[36]
  interaction score: 0.858
[37]
  interaction score: -0.288
[13]
  interaction score: -0.251
[14]
  interaction score: -0.122
[15]
  interaction score: -0.86
[16]
  interaction score: -0.551
[17]
  interaction score: 2.18
[38]
  interaction score: -0.514
[39]
  interaction score: -1.28
[19]
  interaction score: -0.467
[20]
  interaction score: -1.12
[21]
  interaction score: 0.513
[22]
  interaction score: -0.671
[23]
  interaction score: -0.798
[40]
  interaction score: -0.572
[41]
  interaction score: -1.2
[24]
  interaction score: 0.31
